Test results as given in PMC3773880 (Biochimica et biophysica acta, 2013).

Experiments:
[1] = target: T1, low molecular weight gingipain R (RgpB) (Porphyromonas gingivalis, UniProt P95493 230-664); assay: cell-based or functional assay
[2] = target: T1, low molecular weight gingipain R (RgpB); assay: cell-based or functional assay; remark: listed apart in the source
[3] = target: membrane-type RgpB (mt-RgpB), glycosylated (Porphyromonas gingivalis, UniProt P95493 230-736, heavily glycosylated); assay: cell-based or functional assay
gingipain K (Kgp) = gingipain K (Kgp) (Porphyromonas gingivalis); assay: enzyme inhibition kinetics
[4] = target: T1, low molecular weight gingipain R (RgpB); assay: SEC
[5] = target: T1, low molecular weight gingipain R (RgpB); assay: enzyme inhibition kinetics
[6] = target: T1, low molecular weight gingipain R (RgpB); assay: enzyme inhibition kinetics; remark: listed apart in the source

Binder | IC50 of inhibition of amidolytic activity (L-BAPNA), 10 nM enzyme [1] [nM] | IC50 of inhibition of aminopeptidase activity (H-Arg-AMC), 10 nM enzyme [1] [nM] | IC50 of inhibition of proteolytic activity (Azocoll), 10 nM enzyme [1] [nM] | IC50 of inhibition of Rgp activity (L-BAPNA): RgpB (purified non-glycosylated) [2] [nM] | IC50 of inhibition of Rgp activity (L-BAPNA): mt-RgpB (purified) [3] [nM] | Ki (gingipain K (Kgp)) [nM] | stoichiometry N [4] | koff [5] [s⁻¹] | kon [5] [M⁻¹ s⁻¹] | Ki [6] [nM]
PD_(RgpB), recombinant N-terminal prodomain of RgpB (domain or fragment) GPLGSQPAERGRNPQVRLLSAEQSMSKVQFRMDNLQFTGVQTSKGVAQVPTFTEGVNISEKGTPILPILSRSLAVSETRAMKVEVVSSKFIEKKDVLIAPSKGVISRAENPDQIPYVYGQSYNEDKFFPGEIATLSDPFILRDVRGQVVNFAPLQYNPVTKTLRIYTEIVVAVSETAEAGQNTISLVKNSTFTGFEDIYKSVFMNYEATR | 23.7 | 7.2 | 7.1 | 15 | 188 | > 5000 | 1 | 3.1e-05 | 5020 | 6.2
PD_(RgpA), recombinant N-terminal prodomain of RgpA (domain or fragment) QQTELGRNPNVRLLESTQQSVTKVQFRMDNLKFTEVQTPKGMAQVPTYTEGVNLSEKGMPTLPILSRSLAVSDTREMKVEVVSSKFIEKKNVLIAPSKGMIMRNEDPKKIPYVYGKSYSQNKFFPGEIATLDDPFILRDVRGQVVNFAPLQYNPVTKTLRIYTEITVAVSETSEQGKNILNKKGTFAGFEDTYKRMFMNYEPGR | 15.7 | 6.9 | 7.3 |  |  | > 5000 |  | 1.3e-05 | 6070 | 2.1
